Source: US7871610B2, “Antibodies to Tie1 ectodomain” (Dyax Corp., priority 2003, dated 2011)

Molecular target: T1, Tie1-EpoR chimeric receptor (UniProt P14753+P35590)
T1 construct: the PCR amplified extracellular part of human Tie1 (bp 37-2316 of X60975); expressed in transfected cells
T1 sequence (P35590+P14753 with tags, fused parts or gaps): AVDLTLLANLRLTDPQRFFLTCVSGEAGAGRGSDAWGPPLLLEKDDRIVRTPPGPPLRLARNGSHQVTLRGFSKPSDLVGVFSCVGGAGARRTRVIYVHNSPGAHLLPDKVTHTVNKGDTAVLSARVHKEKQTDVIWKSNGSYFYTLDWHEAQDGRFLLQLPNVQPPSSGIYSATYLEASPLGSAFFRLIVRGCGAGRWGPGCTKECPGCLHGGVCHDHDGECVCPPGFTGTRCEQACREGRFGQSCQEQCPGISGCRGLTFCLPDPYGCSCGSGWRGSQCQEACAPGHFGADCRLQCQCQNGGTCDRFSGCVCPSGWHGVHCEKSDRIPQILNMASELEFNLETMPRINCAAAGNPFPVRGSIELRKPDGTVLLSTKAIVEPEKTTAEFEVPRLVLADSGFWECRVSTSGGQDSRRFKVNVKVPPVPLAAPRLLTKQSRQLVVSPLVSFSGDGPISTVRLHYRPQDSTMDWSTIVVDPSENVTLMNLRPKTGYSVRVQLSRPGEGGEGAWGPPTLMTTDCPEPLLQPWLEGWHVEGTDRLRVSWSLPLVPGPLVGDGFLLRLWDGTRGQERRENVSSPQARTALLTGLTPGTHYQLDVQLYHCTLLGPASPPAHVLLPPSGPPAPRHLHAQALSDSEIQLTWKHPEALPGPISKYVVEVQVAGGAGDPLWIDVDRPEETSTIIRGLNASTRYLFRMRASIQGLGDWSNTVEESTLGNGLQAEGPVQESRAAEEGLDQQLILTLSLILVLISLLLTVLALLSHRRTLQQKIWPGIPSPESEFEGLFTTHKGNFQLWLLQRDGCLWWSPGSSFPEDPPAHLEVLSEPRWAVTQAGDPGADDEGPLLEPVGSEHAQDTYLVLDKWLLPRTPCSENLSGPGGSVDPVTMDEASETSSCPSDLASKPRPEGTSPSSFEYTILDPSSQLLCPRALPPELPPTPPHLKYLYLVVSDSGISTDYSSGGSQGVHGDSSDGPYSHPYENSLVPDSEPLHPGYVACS
Test: Ba/F3 bioassay (Tie1/EpoR chimeric BaF3 cell assay), MTT viability
Format: cell-based, human
Details: for survival/viability of Tie1-EpoR Ba/F3 cells: antibody alone, no IL-3
Procedure, shortened: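 Ba/F3 cells expressing human Tie1 extracellular domain fused to mouse EpoR transmembrane/cytoplasmic domains, seeded at 50 000 cells/well with anti-Tie1 antibodies for 48 h. Non-expressing Zeocin-resistant pools served as controls. Survival read by MTT (0.5 mg/ml, 2 h), SDS/HCl lysis overnight at 37 °C, absorbance at 540 nm.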

B1: E3: human anti-Tie1 antibody from Fab phage library; HC SEQ ID NO:114, LC SEQ ID NO:116 (antibody, V domains shown)
VH: EVQLLESGGGLVQPGGSLRLSCAASGFTFSMYGMVWVRQAPGKGLEWVSVISPSGGNTGYADSVKGRFTISRDNSKNTLYLQVNSLRAEDTAVYYCARAPRGYSYGYYYWGQGTLVTVSSASTKGPSVFPLAPSSKSTSGG
VL: DIQMTQSPLSLSASVGDRVTITCRASQGIGHYLAWYQQKPGKVPKLLIYTASTLQSGVPSRFSGSGSGTDFTLTINSLQPEDVATYYCQQFNSYPHTFGQGTRLDIK
modifications: Synthetically generated peptide
concentration giving almost maximal viability in Tie1-EpoR cell survival assays (Tie1-EpoR Ba/F3 cells): 50 ng/mL
Average MTT activity in BaF3 cell assay (Tie1-EpoR Ba/F3 cells, 48 h, absorbance 540 nm, E3 IgG 100 ng/ml together with 100 or 500 ng/ml of the other antibody): 0.61
survival/viability of Tie1-EpoR Ba/F3 cells: functions as a Tie1 activating antibody
survival/viability of Tie1-EpoR Ba/F3 cells (listed as E3 IgG): able to promote survival
viability of EpoR Ba/F3 cells used as a control (control cells not expressing Tie1-EpoR): not affected
